Numbered stars: 1 amine (or outer) side, 2 acyl side, 3 side chain; on linkers, the order of the positions; unused ones are H or OH. Bridge positions count the residues as written; N and C are the ends. Side chains are listed from the residue outwards. Ends that are not written are not given here. * marks the point of attachment. C20 diacid = O=C(O)CCCCCCCCCCCCCCCCCCC(=O)*; γGlu = O=C(O)[C@H](CCC(=O)[*:2])N[*:1]
T1: human calcitonin receptor (human, UniProt P30988 25-474)
T1 construct: whole, on cells; also called hCTR; hCT
T1 sequence (looked up): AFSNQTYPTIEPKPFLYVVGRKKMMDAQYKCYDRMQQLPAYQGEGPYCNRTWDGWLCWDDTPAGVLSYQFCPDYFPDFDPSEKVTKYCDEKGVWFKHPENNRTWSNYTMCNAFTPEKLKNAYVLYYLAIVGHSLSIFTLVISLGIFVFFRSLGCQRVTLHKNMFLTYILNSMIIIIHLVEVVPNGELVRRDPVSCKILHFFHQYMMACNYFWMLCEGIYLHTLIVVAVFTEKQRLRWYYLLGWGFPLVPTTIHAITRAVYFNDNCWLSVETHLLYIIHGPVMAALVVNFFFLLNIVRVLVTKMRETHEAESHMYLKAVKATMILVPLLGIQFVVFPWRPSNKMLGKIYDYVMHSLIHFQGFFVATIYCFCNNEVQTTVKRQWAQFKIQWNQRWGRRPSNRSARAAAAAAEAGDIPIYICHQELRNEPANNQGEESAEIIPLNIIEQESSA

B1: N^ε1-[(4S)-4-carboxy-4-(19-carboxynonadecanoylamino)butanoyl]-[Arg17,Pro21,Pro27,Glu35]-h-amylin (peptide)
peptide: K([γGlu-C20 diacid])CNTATCATQRLANFLRHSSPNFGAIPSSTNVGSETY-NH2
modifications: disulfide 2-7; N-terminus assumed
SMILES: CC[C@H](C)[C@H](NC(=O)[C@H](C)NC(=O)CNC(=O)[C@H](Cc1ccccc1)NC(=O)[C@H](CC(N)=O)NC(=O)[C@@H]1CCCN1C(=O)[C@H](CO)NC(=O)[C@H](CO)NC(=O)[C@H](Cc1c[nH]cn1)NC(=O)[C@H](CCCNC(=N)N)NC(=O)[C@H](CC(C)C)NC(=O)[C@H](Cc1ccccc1)NC(=O)[C@H](CC(N)=O)NC(=O)[C@H](C)NC(=O)[C@H](CC(C)C)NC(=O)[C@H](CCCNC(=N)N)NC(=O)[C@H](CCC(N)=O)NC(=O)[C@@H](NC(=O)[C@H](C)NC(=O)[C@@H]1CSSC[C@H](NC(=O)[C@@H](N)CCCCNC(=O)CC[C@H](NC(=O)CCCCCCCCCCCCCCCCCCC(=O)O)C(=O)O)C(=O)N[C@@H](CC(N)=O)C(=O)N[C@@H]([C@@H](C)O)C(=O)N[C@@H](C)C(=O)N[C@@H]([C@@H](C)O)C(=O)N1)[C@@H](C)O)C(=O)N1CCC[C@H]1C(=O)N[C@@H](CO)C(=O)N[C@@H](CO)C(=O)N[C@H](C(=O)N[C@@H](CC(N)=O)C(=O)N[C@H](C(=O)NCC(=O)N[C@@H](CO)C(=O)N[C@@H](CCC(=O)O)C(=O)N[C@H](C(=O)N[C@@H](Cc1ccc(O)cc1)C(N)=O)[C@@H](C)O)C(C)C)[C@@H](C)O
notes: also called compound 27
B2: N^ε1-[(4S)-4-carboxy-4-(19-carboxynonadecanoylamino)butanoyl]-[Glu14,Arg17,Pro21,Pro27,Arg35]-h-amylin (peptide)
peptide: K([γGlu-C20 diacid])CNTATCATQRLAEFLRHSSPNFGAIPSSTNVGSRTY-NH2
modifications: disulfide 2-7; N-terminus assumed
SMILES: CC[C@H](C)[C@H](NC(=O)[C@H](C)NC(=O)CNC(=O)[C@H](Cc1ccccc1)NC(=O)[C@H](CC(N)=O)NC(=O)[C@@H]1CCCN1C(=O)[C@H](CO)NC(=O)[C@H](CO)NC(=O)[C@H](Cc1c[nH]cn1)NC(=O)[C@H](CCCNC(=N)N)NC(=O)[C@H](CC(C)C)NC(=O)[C@H](Cc1ccccc1)NC(=O)[C@H](CCC(=O)O)NC(=O)[C@H](C)NC(=O)[C@H](CC(C)C)NC(=O)[C@H](CCCNC(=N)N)NC(=O)[C@H](CCC(N)=O)NC(=O)[C@@H](NC(=O)[C@H](C)NC(=O)[C@@H]1CSSC[C@H](NC(=O)[C@@H](N)CCCCNC(=O)CC[C@H](NC(=O)CCCCCCCCCCCCCCCCCCC(=O)O)C(=O)O)C(=O)N[C@@H](CC(N)=O)C(=O)N[C@@H]([C@@H](C)O)C(=O)N[C@@H](C)C(=O)N[C@@H]([C@@H](C)O)C(=O)N1)[C@@H](C)O)C(=O)N1CCC[C@H]1C(=O)N[C@@H](CO)C(=O)N[C@@H](CO)C(=O)N[C@H](C(=O)N[C@@H](CC(N)=O)C(=O)N[C@H](C(=O)NCC(=O)N[C@@H](CO)C(=O)N[C@@H](CCCNC(=N)N)C(=O)N[C@H](C(=O)N[C@@H](Cc1ccc(O)cc1)C(N)=O)[C@@H](C)O)C(C)C)[C@@H](C)O
notes: also called compound 51
B3: N^ε1-[(4S)-4-carboxy-4-(19-carboxynonadecanoylamino)butanoyl]-[His14,Arg17,Pro21,Pro27,His35]-h-amylin (peptide)
peptide: K([γGlu-C20 diacid])CNTATCATQRLAHFLRHSSPNFGAIPSSTNVGSHTY-NH2
modifications: disulfide 2-7; N-terminus assumed
SMILES: CC[C@H](C)[C@H](NC(=O)[C@H](C)NC(=O)CNC(=O)[C@H](Cc1ccccc1)NC(=O)[C@H](CC(N)=O)NC(=O)[C@@H]1CCCN1C(=O)[C@H](CO)NC(=O)[C@H](CO)NC(=O)[C@H](Cc1c[nH]cn1)NC(=O)[C@H](CCCNC(=N)N)NC(=O)[C@H](CC(C)C)NC(=O)[C@H](Cc1ccccc1)NC(=O)[C@H](Cc1c[nH]cn1)NC(=O)[C@H](C)NC(=O)[C@H](CC(C)C)NC(=O)[C@H](CCCNC(=N)N)NC(=O)[C@H](CCC(N)=O)NC(=O)[C@@H](NC(=O)[C@H](C)NC(=O)[C@@H]1CSSC[C@H](NC(=O)[C@@H](N)CCCCNC(=O)CC[C@H](NC(=O)CCCCCCCCCCCCCCCCCCC(=O)O)C(=O)O)C(=O)N[C@@H](CC(N)=O)C(=O)N[C@@H]([C@@H](C)O)C(=O)N[C@@H](C)C(=O)N[C@@H]([C@@H](C)O)C(=O)N1)[C@@H](C)O)C(=O)N1CCC[C@H]1C(=O)N[C@@H](CO)C(=O)N[C@@H](CO)C(=O)N[C@H](C(=O)N[C@@H](CC(N)=O)C(=O)N[C@H](C(=O)NCC(=O)N[C@@H](CO)C(=O)N[C@@H](Cc1c[nH]cn1)C(=O)N[C@H](C(=O)N[C@@H](Cc1ccc(O)cc1)C(N)=O)[C@@H](C)O)C(C)C)[C@@H](C)O
notes: also called compound 66
B4: N^ε1-[(4S)-4-carboxy-4-(19-carboxynonadecanoylamino)butanoyl]-[Arg17,Pro21,Pro27,Lys35]-h-amylin (peptide)
peptide: K([γGlu-C20 diacid])CNTATCATQRLANFLRHSSPNFGAIPSSTNVGSKTY-NH2
modifications: disulfide 2-7; N-terminus assumed
SMILES: CC[C@H](C)[C@H](NC(=O)[C@H](C)NC(=O)CNC(=O)[C@H](Cc1ccccc1)NC(=O)[C@H](CC(N)=O)NC(=O)[C@@H]1CCCN1C(=O)[C@H](CO)NC(=O)[C@H](CO)NC(=O)[C@H](Cc1c[nH]cn1)NC(=O)[C@H](CCCNC(=N)N)NC(=O)[C@H](CC(C)C)NC(=O)[C@H](Cc1ccccc1)NC(=O)[C@H](CC(N)=O)NC(=O)[C@H](C)NC(=O)[C@H](CC(C)C)NC(=O)[C@H](CCCNC(=N)N)NC(=O)[C@H](CCC(N)=O)NC(=O)[C@@H](NC(=O)[C@H](C)NC(=O)[C@@H]1CSSC[C@H](NC(=O)[C@@H](N)CCCCNC(=O)CC[C@H](NC(=O)CCCCCCCCCCCCCCCCCCC(=O)O)C(=O)O)C(=O)N[C@@H](CC(N)=O)C(=O)N[C@@H]([C@@H](C)O)C(=O)N[C@@H](C)C(=O)N[C@@H]([C@@H](C)O)C(=O)N1)[C@@H](C)O)C(=O)N1CCC[C@H]1C(=O)N[C@@H](CO)C(=O)N[C@@H](CO)C(=O)N[C@H](C(=O)N[C@@H](CC(N)=O)C(=O)N[C@H](C(=O)NCC(=O)N[C@@H](CO)C(=O)N[C@@H](CCCCN)C(=O)N[C@H](C(=O)N[C@@H](Cc1ccc(O)cc1)C(N)=O)[C@@H](C)O)C(C)C)[C@@H](C)O
notes: also called compound 35
B5: N^ε1-[(4S)-4-carboxy-4-(19-carboxynonadecanoylamino)butanoyl]-[His14,Arg17,Pro21,Pro27,Pro31]-h-amylin (peptide)
peptide: K([γGlu-C20 diacid])CNTATCATQRLAHFLRHSSPNFGAIPSSTPVGSNTY-NH2
modifications: disulfide 2-7; N-terminus assumed
SMILES: CC[C@H](C)[C@H](NC(=O)[C@H](C)NC(=O)CNC(=O)[C@H](Cc1ccccc1)NC(=O)[C@H](CC(N)=O)NC(=O)[C@@H]1CCCN1C(=O)[C@H](CO)NC(=O)[C@H](CO)NC(=O)[C@H](Cc1c[nH]cn1)NC(=O)[C@H](CCCNC(=N)N)NC(=O)[C@H](CC(C)C)NC(=O)[C@H](Cc1ccccc1)NC(=O)[C@H](Cc1c[nH]cn1)NC(=O)[C@H](C)NC(=O)[C@H](CC(C)C)NC(=O)[C@H](CCCNC(=N)N)NC(=O)[C@H](CCC(N)=O)NC(=O)[C@@H](NC(=O)[C@H](C)NC(=O)[C@@H]1CSSC[C@H](NC(=O)[C@@H](N)CCCCNC(=O)CC[C@H](NC(=O)CCCCCCCCCCCCCCCCCCC(=O)O)C(=O)O)C(=O)N[C@@H](CC(N)=O)C(=O)N[C@@H]([C@@H](C)O)C(=O)N[C@@H](C)C(=O)N[C@@H]([C@@H](C)O)C(=O)N1)[C@@H](C)O)C(=O)N1CCC[C@H]1C(=O)N[C@@H](CO)C(=O)N[C@@H](CO)C(=O)N[C@H](C(=O)N1CCC[C@H]1C(=O)N[C@H](C(=O)NCC(=O)N[C@@H](CO)C(=O)N[C@@H](CC(N)=O)C(=O)N[C@H](C(=O)N[C@@H](Cc1ccc(O)cc1)C(N)=O)[C@@H](C)O)C(C)C)[C@@H](C)O
notes: also called compound 62
B6: N^ε1-[(4S)-4-carboxy-4-(19-carboxynonadecanoylamino)butanoyl]-[Arg17,Pro21,Pro27,His35]-h-amylin (peptide)
peptide: K([γGlu-C20 diacid])CNTATCATQRLANFLRHSSPNFGAIPSSTNVGSHTY-NH2
modifications: disulfide 2-7; N-terminus assumed
SMILES: CC[C@H](C)[C@H](NC(=O)[C@H](C)NC(=O)CNC(=O)[C@H](Cc1ccccc1)NC(=O)[C@H](CC(N)=O)NC(=O)[C@@H]1CCCN1C(=O)[C@H](CO)NC(=O)[C@H](CO)NC(=O)[C@H](Cc1c[nH]cn1)NC(=O)[C@H](CCCNC(=N)N)NC(=O)[C@H](CC(C)C)NC(=O)[C@H](Cc1ccccc1)NC(=O)[C@H](CC(N)=O)NC(=O)[C@H](C)NC(=O)[C@H](CC(C)C)NC(=O)[C@H](CCCNC(=N)N)NC(=O)[C@H](CCC(N)=O)NC(=O)[C@@H](NC(=O)[C@H](C)NC(=O)[C@@H]1CSSC[C@H](NC(=O)[C@@H](N)CCCCNC(=O)CC[C@H](NC(=O)CCCCCCCCCCCCCCCCCCC(=O)O)C(=O)O)C(=O)N[C@@H](CC(N)=O)C(=O)N[C@@H]([C@@H](C)O)C(=O)N[C@@H](C)C(=O)N[C@@H]([C@@H](C)O)C(=O)N1)[C@@H](C)O)C(=O)N1CCC[C@H]1C(=O)N[C@@H](CO)C(=O)N[C@@H](CO)C(=O)N[C@H](C(=O)N[C@@H](CC(N)=O)C(=O)N[C@H](C(=O)NCC(=O)N[C@@H](CO)C(=O)N[C@@H](Cc1c[nH]cn1)C(=O)N[C@H](C(=O)N[C@@H](Cc1ccc(O)cc1)C(N)=O)[C@@H](C)O)C(C)C)[C@@H](C)O
notes: also called compound 60

Biological target: T1, human calcitonin receptor
Assay: SPA competition with 125I-calcitonin, membranes of BHK hCTR cells (Assay VII)
How it was run: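 BHK hCTR membranes 35 ng/μL + SPA beads 0.05 mg/well; buffer 50 mM Hepes pH 7.4, 1 mM CaCl2, 5 mM MgCl₂, 0.1% OA, 0.02% Tween20. 120 min, 25° C., shaking. Scintillation count; IC50 by one-site binding competition.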

Row | IC50 | Binder
1 | 34.5 nM | B1
2 | 31.1 nM | B2
3 | 18 nM | B3
4 | 48.8 nM | B4
5 | 6.17 nM | B5
6 | 31.4 nM | B6

— patent US20140087995A1 (published 2014)
